# Tested on: K4 kissing-loop RNA reporter
# Experiment: apparent KD of K4 kissing-loop reporter; higher = weaker reporter binding
# Settings: Eterna round: R107
# Description: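 RNA-MaP round R107: designed RNA switches with theophylline, tryptophan, arginine or FMN aptamers are transcribed on-chip within common flanks. They are titrated with a labelled K4 kissing-loop RNA reporter in RNA-MaP buffer (100 mM Tris pH 7.5, 80 mM KCl, 4 mM MgCl2), without ligand or with the indicated ligand. Median apparent KD per design.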
# [1] = input ligand: theophylline 20 uM
# [2] = input ligand: tryptophan 2.4 mM
# 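Further: bound reporter read as fluorescence of individual clusters on recovered sequencing chips by microscopy, with normalized cluster intensities fitted with a binding model.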
Sequence,apparent KD of K4 kissing-loop reporter (input ligand: FMN 200 uM) [µM],apparent KD of K4 kissing-loop reporter (input ligand: arginine 13.2 mM) [µM],apparent KD of K4 kissing-loop reporter (input ligand: none) [µM],apparent KD of K4 kissing-loop reporter [1] [µM],apparent KD of K4 kissing-loop reporter [2] [µM]
UGGACCGCCUGAGGAUAUAGGGACGAGUGAUGUUCGUGGACCAGAGCCAGUGAUGUUGGGUUAUUUCUAGAAGGCGGGCGAACUU [Exclusion FMN B GF11],0.12,0.167,0.188,0.154,0.146
UGGACCUGACUCGAUAAGAGUCAAUGAGAUACCAGUGACGAAAGUCACCCUUGGCAGCUCCUGCCAGUGAUGUUGGUAAGGUCCU [#SwitchBubble 4 #StaticStem],0.416,0.252,0.437,0.575,0.299
UGGAGUUGACGAAAAGUCAACUCCUGAGAUACCAGUGACGAAAGUCACCCUUGGCAGCUCACUGCCAGUGAUGUUGGAAAAUAAA [#OpenEnded 1],0.527,0.295,0.238,0.204,0.387
UGGAGUUGACGAAAAGUCAACUCCUGAGAUACCAGUGACGAAAGUCACCCUUGGCAGCUCACUGGCAGUGAUGUUGCUAAAUAAA [KL-SSTheo-A2],0.0573,0.0514,0.122,0.0635,0.0326
UGGAGUUGACGAAAAGUCAACUCCUGAGAUACCAGUGACGAAAGUCACCCUUGGCAGCUCACUGGCAGUGAUGUUGCUAUAUAAA [KL-SSTheo-A3],0.0855,0.0689,0.0953,0.211,0.101
UGGAGUUGACGAAAAGUCAACUCCUGAGAUCGAGGACCGGUACGGCCGCCACUCGAGCUAACUGCGAGUGAUGUUCGAAAAUAAA [#OpenEnded 1 - Direct theophylline transfer],0.191,0.313,0.235,0.393,0.0971
UGGAUAUAGUGAUGUUAUAUAGAGAUGGAUACCAGCUAAGAGAAUGGCCCUUGGCAGCCGAAAGAAGUAUCAUUAGAGAAGAAUG [ExTheophyl.Ag],0.261,0.249,0.259,0.276,0.214
UGGAUAUAGUUUAGUCUGGUGAGGUCAGAUACCAGACUAGCGAUAGUCCCUUGGCAGCUGAUUAUGAUUGAGUGAUGUUCAAUCG [Theo A Ex t9],0.187,0.151,0.17,0.157,0.157
UGGGAUGUUAAAGGAUAUAGCAGAUGAUACAAGAAAGUGAGUGAUGUUUAUGUAGAUGAUGAUAUGUUAGAAGGUUAACAAAACG [abcdefghijk],0.625,0.595,0.754,0.715,0.544
UGGUUCAAUACGGCCGCCACUGGUGAGUGAUGUUUACCGUCUAUAUCAUGUGUCGAGAGCGCUAUCAGGACCGGGUAGGGACCGU [theeternabot_exclusion_KL_Trp_B_42],0.673,0.396,0.721,0.837,0.458
UGUAAUGGCUGAGCAGCCGUGGUACGAGAUACCAGUGAUUUCGAUCACCCUUGGCAGCUCGGCGUGAGUGAUGUUCACGCUACAC [Theo A SS t12],0.201,0.199,0.203,0.207,0.199
UGUACCGAGUCAGGAUAUGAACGACUGACAAAAGUCGGUCGAAUAUCCAGUGAUGUUGGAAAUAAAUCAGAAGGGACUUGGUACU [FmnBS 15 #SwitchBubble #StaticStem],0.13,0.805,0.974,0.84,0.726
UGUACCGAGUCAGGAUAUGUCGUCGAAAGACGAAAUGGAGUGAUGUUCCUUAAACUGCGAAAGCAGACAGAAGGGAUUUGGUACU [FmnBS 29 U77],0.207,0.654,0.739,0.738,0.717
UGUACUAUUGUGAGUGAUGUUCACUUCGAUACCAGCAGAGCGAUCUGCCCUUGGCAGCGAGUUAACUGCCGAAAGGCAAGGAUUA [Theo B SS t9],0.535,0.528,0.546,0.546,0.378
UGUAUGUGAUUUGAUACCAGACCAGCUGGUGGAUCACGAGUGAUGUUCGUGUUGGUUUGGGUCCCUUGGCAGCAAAUCGCAUACU [KL-SSTheoB13],0.218,0.151,0.18,0.131,0.166
UGUAUUUCGGCGGCCGCCACUGACCAUAGCCUUCGAUGGCCAGUGAUGUUGGCCUCUGGCUCUAACAGGACCGGGCCGAAUUGCG [Usvediin],0.303,0.165,0.19,0.168,0.132
UGUCAUGGAAACAUGAACGUUGAAAUAAAUCGAGGACCGGUACGGCCGCCACUCGUAUAGCGGUCAGUGAUGUUGACUGUAAUAA [KL-SSTryp-A form2 sub9],0.0949,0.112,0.11,0.132,0.0987
UGUCAUGGAAACAUGACCGUUAAAAUAAAUCGAGGACCGGUACGGCCGCCACUCGUAUAGCGGUCAGUGAUGUUGACUGUAGUAC [KL-SSTryp-A form2 sub12 #dotplot2>1],0.419,0.428,0.491,0.475,0.546
UGUCAUUGGUCUGAUACCAGUACCCUUGGCAGCCAAGGAGUGAUGUUCCGAGGAUACCAGUGCCCUUGGCAGCAGACCGAUGACU [TheoBS 27 #DoubleAptamer #SwitchBubble],0.375,0.308,0.354,0.176,0.35
UGUCAUUGGUCUGAUACCAGUUGAUAAACUGGAGUGAUGUUCCUCGACGAAUACGUCGACAACCCUUGGCAGCAGACCGAUGACU [TheoBS 14 #SwitchBubble 13 #StaticStem],0.683,0.627,0.713,0.354,0.607
UGUGAUGUGUAGUGUGAUGUUUUGAAGGAUACCAGAGUGUUGUUAUUCCCUUGGCAGCUUGAGUGAUGUUUGAUGUUGUUGUUGU [aawemullin],0.324,0.179,0.26,0.229,0.224
UGUGAUGUGUAGUGUUAUGUUUUGCGGGAUACCAGAGUCUUUUUAUUCCCUUGGCAGCUUGAGUGAUGUUUGAUGCUGUUGUUGU [pwwamullin],0.485,0.349,0.461,0.463,0.339

Sequence,apparent KD of K4 kissing-loop reporter (input ligand: FMN 200 uM) [µM],apparent KD of K4 kissing-loop reporter (input ligand: arginine 13.2 mM) [µM],apparent KD of K4 kissing-loop reporter (input ligand: none) [µM],apparent KD of K4 kissing-loop reporter [1] [µM],apparent KD of K4 kissing-loop reporter [2] [µM]
UGUGUUUACCUGACUCAGUGAUGUUGAGAAGGAGCGUGAGAAGGCACAGGUAGGUCGCUCAACCUAAAUUCAGGUGAGCACUAAA,0.134,0.188,0.173,0.193,0.142
UGUGUUUACCUGACUCAGUGAUGUUGAGAAGGAGCGUGCUAAUGCACAGGUAGGUCGCUCAACCUAAAUUCAGGUGAGCACUAAA,0.587,0.25,0.56,0.271,0.478
UGUGUUUACCUGACUCAGUGAUGUUGAGAAGGAGCGUUCGAAAGAACAGGUAGGUCGCUCAACCUAAAUUCAGGUGAGCACUAAA,0.264,0.223,0.376,0.466,0.322
UGUUAUGUAUCAGGAUAUUAGUGUUGUUUGUUUAUGUUAGUGAUGUUGAUAUUUGUUUUAUGUAUUUAAGAAGGGAUUGAGAUGU [kkplmullin],0.369,0.339,0.31,0.359,0.258
UUAGAGAUCUCAGGAUAUCAGUGAUGUUGGUUGCCAGAUCUGAGAUAGAAUUCUAUCUCAGAUCAAUGAGAAGGGAGAUCUCAUU [AK4 Exc FMN B],0.501,0.313,0.352,0.317,0.282
UUAGAUCAAAGAUCAGUCUUAUGGAGGGAACGAGGACCGGUACGGCCGCCACUCGAGUGAUGUUCGAGAACCCUCGUGACAAAUU [AK4 EXC Tryptophan A],0.196,0.146,0.189,0.164,0.297
UUAGGAGUGGAAGGAUAUCCUGGUGUGGGUGGUGUUAGUGAUGUUGGUGGUGCAGUGAUGUUGCGCGGAGAAGGUCCGGUGUUGA [BDazzled - #4 - Exc. FMN B],0.471,0.384,0.434,0.554,0.358
UUAGUCUAGAGAAGGAGCGAGUGAUGUUUGCUAAGCUAUAUAAUAAAAUAUAGCAAAUUUACUCAGGUAGGUCGCUCUAGACAUU [AK3 Exc Arginine B],0.153,0.122,0.098,0.149,0.0742
UUAGUCUAGAGAAGGAGCGCAGUGAUGUUGCGGUAUGUGAAAAUAUGUAUAUAAUAAUAAAUGCAGGUAGGUCGCUCUAGACAUU [AK2 Exc Arginine B],0.0684,0.0897,0.0649,0.0857,0.0543
UUAUAAUUCAGUGAUGUUGAAAAUAUAACAGAGGAUAUGCGUUUAAGCAGAAGGCUGAAAUACUAUACUUUAAUCUAUUAAAUUU [JR_SSFMNA_Sub019],0.232,0.377,0.313,0.332,0.212
UUAUAUACGAGUGAUGUUCGUUAUUUAUCAGAGGAUAUGCUUAAAUGCAGAAGGCUGUAUUUCUAUUUGAUAUUAAAUUUUAUAA [JR_Nu3_ExcFMNA_Sub026],0.0908,0.0898,0.0668,0.0861,0.0573
UUAUUAAUCACAGAUACCAGUCCAGAAUGAAUACUAUAGUGAUGUUAUAAUAAAGGGAAGGACCCUUGGCAGCUGUAAUAUAUUU [AstrosSsTheB#2],0.525,0.37,0.499,0.354,0.32
UUCGUAGUAGGAAACUAUUACGAAAAGGAAGGAGCGGCGAAGAAGCCAGGUAGGUCGCCUAUUGACAGUGAUGUUGUUAUGUAGA [#9],0.172,0.341,0.241,0.36,0.142
UUGCGGAGUGAUGUUUCGGGAUAUCGGGAAGGAGCGCCGAUAACGGCAGGUAGGUCGCCCGGUCCAGUGAUGUUGGGCAUGCAUU [Exclusion Arg A GF 23],0.2,0.136,0.212,0.201,0.171
UUGGCAGUGAUGUUGCCAGACAUCACCGAAGGAGCGGGCGAAAGCCCAGGUAGGUCGCGGUAGCGGAGUGAUUCUCCGCGAGGGC [Same State Arginine A GF 23],0.957,0.621,0.937,0.759,0.829
UUUAAAUAUAGUGAUGUUAUAUAACAAUGACGAGGACCGGUACGGCCGCCACUCGAGAGAGAUAAUGGUCGUUCGAAUCGAACGC [AstrosSSTryA#6],0.599,0.779,0.672,0.574,0.41
UUUAUAUAGUCGGCCGCCACUGAUUUUUUUAUAUGUUUAUGUUUAUACGAGUGAUGUUCGAUAUACAGGACCGGGACUUUGGUUA [JR_SSTryptoB_Sub019],0.145,0.207,0.159,0.224,0.115
UUUAUAUAGUCGGCCGCCACUGGAUUAAUAUUUGUAUAAUCUAGAUCAAAGUGAUGUUUUGAGUCCAGGACCGGGACAUUUGUUA [JR_ExcTryptoB_Sub006],0.539,0.391,0.486,0.525,0.427
UUUAUAUUCUGAGGAUAUCGUAUUAAUGAAGUGAUGUUUCAGUAUAUUCUAAUUAUAUAUAAUUUUCGAGAAGGCAGUAUUAUUU [JR_Nu3_SSFMNB_Sub028],0.187,0.243,0.246,0.32,0.196
UUUCGUUUCGUCUGACAUAAUUGGCUAGAAGGAGCGGUAAAAUUACCAGGUAGGUCGCUAGCCCAGUGAUGUUGGGACUAGCGUA [Edries],0.124,0.107,0.114,0.116,0.125
UUUCUAUCGGGAAGGAGCGUGAAUGAUAAUGGAUAUAGUGAUGUUAUAUAUAAGAACGAAUCGCAGGUAGGUCGCCCGGAUGACU [SSArgB.R],0.346,0.357,0.323,0.389,0.169
UUUGGAGAGGGAAGGAGCGUGAAAGAGAAAGAAUAUAGUGAUGUUAUAUAGAAGAAAGAAUCACAGGUAGGUCGCCCGGAGGAGG [SSArgB.D],0.707,0.865,0.661,0.99,0.575

# Source: the supplement of paper PMC9170038
